Source: US10450368 (DUKE UNIVERSITY, dated 2019)

T1: SSB (UniProt P05455 1-408)
T1 sequence: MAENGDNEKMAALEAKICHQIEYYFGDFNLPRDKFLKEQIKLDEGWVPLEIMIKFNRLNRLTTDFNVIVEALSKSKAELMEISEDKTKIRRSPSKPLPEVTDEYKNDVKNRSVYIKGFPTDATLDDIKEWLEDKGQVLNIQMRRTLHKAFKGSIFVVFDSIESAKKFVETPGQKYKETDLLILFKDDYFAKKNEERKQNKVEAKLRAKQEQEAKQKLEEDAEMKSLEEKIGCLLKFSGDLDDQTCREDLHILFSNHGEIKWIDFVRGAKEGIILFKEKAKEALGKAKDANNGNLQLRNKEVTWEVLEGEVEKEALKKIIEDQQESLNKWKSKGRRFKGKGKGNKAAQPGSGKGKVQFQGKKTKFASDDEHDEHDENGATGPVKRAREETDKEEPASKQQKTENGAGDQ

T2: Scl-70 (UniProt P11387 1-765)
T2 sequence: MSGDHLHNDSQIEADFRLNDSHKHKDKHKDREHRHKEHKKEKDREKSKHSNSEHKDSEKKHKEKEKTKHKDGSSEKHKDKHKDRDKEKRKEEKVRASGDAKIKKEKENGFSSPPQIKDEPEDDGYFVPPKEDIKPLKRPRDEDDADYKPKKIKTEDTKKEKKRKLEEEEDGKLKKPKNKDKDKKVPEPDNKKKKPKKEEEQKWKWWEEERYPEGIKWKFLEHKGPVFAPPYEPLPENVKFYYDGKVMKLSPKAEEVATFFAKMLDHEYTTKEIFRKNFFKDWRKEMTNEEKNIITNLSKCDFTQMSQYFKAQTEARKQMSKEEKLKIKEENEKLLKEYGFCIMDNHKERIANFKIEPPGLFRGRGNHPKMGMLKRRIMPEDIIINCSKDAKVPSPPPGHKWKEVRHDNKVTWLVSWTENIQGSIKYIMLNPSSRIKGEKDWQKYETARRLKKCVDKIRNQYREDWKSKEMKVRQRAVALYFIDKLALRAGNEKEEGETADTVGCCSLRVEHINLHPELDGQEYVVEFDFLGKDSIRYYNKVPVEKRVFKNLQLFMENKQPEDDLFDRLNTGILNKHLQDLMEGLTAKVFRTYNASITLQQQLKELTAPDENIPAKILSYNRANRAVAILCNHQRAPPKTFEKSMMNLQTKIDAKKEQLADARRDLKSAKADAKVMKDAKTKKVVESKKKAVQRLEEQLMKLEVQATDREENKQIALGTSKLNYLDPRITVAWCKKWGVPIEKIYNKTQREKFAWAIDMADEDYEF

T3: Jo-1 (UniProt P12081 1-509)
T3 sequence: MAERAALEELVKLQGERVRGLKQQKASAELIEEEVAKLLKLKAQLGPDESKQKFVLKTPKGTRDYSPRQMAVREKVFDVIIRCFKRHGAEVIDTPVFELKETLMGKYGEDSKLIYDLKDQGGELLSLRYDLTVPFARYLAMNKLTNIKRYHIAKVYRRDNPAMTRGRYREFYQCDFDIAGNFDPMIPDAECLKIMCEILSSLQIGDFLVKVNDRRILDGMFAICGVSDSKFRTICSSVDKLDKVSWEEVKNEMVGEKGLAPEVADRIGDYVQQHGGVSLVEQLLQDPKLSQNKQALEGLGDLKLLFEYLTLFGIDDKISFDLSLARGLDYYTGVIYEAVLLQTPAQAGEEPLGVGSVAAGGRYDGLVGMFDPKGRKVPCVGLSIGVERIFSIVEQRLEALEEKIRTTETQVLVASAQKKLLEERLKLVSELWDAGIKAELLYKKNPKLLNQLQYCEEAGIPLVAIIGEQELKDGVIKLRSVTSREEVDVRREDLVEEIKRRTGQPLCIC

T4: Centromere B (UniProt P07199 1-599)
T4 construct: also called Cent B
T4 sequence: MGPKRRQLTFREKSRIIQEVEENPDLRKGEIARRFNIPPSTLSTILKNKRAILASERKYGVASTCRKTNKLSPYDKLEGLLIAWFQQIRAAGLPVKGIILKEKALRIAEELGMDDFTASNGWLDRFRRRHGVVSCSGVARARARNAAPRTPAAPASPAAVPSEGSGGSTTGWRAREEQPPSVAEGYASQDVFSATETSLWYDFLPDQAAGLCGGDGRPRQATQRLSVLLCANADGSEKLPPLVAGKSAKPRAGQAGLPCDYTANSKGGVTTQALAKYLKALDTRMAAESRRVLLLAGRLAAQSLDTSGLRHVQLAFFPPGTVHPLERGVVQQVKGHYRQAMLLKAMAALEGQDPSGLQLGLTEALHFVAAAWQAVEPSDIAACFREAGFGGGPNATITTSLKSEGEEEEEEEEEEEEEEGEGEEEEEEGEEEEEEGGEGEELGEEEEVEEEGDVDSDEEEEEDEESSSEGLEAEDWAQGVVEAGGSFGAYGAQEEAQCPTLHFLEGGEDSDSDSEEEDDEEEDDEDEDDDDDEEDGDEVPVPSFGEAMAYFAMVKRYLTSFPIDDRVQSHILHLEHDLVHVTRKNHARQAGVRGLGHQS


Assays:
CH0505_CON D7gp120/293i = experiment: ELISA
CH505w020.14D8gp120 = biological target: T5, CH505w020.14D8gp120; experiment: ELISA
T5 construct: also called CH505w20.14 gp120

CH505w030.20D8gp120/293F = biological target: T6, CH505w030.20D8gp120/293F; experiment: ELISA
T6 construct: also called CH505w30.20 gp120

CH505.w30.12D8gp120 = biological target: T7, CH505.w30.12D8gp120; experiment: ELISA
T7 construct: also called CH505w30.12 gp120

CH505w136.B18D8gp120 = experiment: ELISA
CH505.M5D8gp120293F = experiment: ELISA
CH505.M10D8gp120 = experiment: ELISA
CH505.M11D8gp120/293F = experiment: ELISA
CH505.M19D8gp120 = experiment: ELISA
CH505.M21D8gp120/293F = experiment: ELISA
CH505.M9D8gp120/293F = experiment: ELISA
CH505.M7D8gp120/293F = experiment: ELISA
CH505.TF mutant gp120 M6 = biological target: T8, CH505.TF mutant gp120 M6 (HIV-1); experiment: ELISA
T8 construct: domain: gp120

CH505.TF mutant gp120 M8 = biological target: T9, CH505.TF mutant gp120 M8 (HIV-1); experiment: ELISA
T9 construct: domain: gp120

[1] = biological target: T10, CH505.TF mutant gp120 M20 (HIV-1); experiment: ELISA
T10 construct: domain: gp120

SSB = biological target: T1, SSB; experiment: ELISA, LogAUC grade
Scl-70 = biological target: T2, Scl-70; experiment: ELISA, LogAUC grade
Jo-1 = biological target: T3, Jo-1; experiment: ELISA, LogAUC grade
Centromere B = biological target: T4, Centromere B; experiment: ELISA, LogAUC grade

Row | Binder | LogAUC (CH0505_CON D7gp120/293i) | LogAUC (CH505w020.14D8gp120) | LogAUC (CH505w030.20D8gp120/293F) | LogAUC (CH505.w30.12D8gp120) | LogAUC (CH505w136.B18D8gp120) | LogAUC (CH505.M5D8gp120293F) | LogAUC (CH505.M10D8gp120) | LogAUC (CH505.M11D8gp120/293F) | LogAUC (CH505.M19D8gp120) | LogAUC (CH505.M21D8gp120/293F) | LogAUC (CH505.M9D8gp120/293F) | LogAUC (CH505.M7D8gp120/293F) | LogAUC (CH505.TF mutant gp120 M6) | LogAUC (CH505.TF mutant gp120 M8) | LogAUC [1] | binding result (SSB) | binding result (Scl-70) | binding result (Jo-1) | binding result (Centromere B)
1 | CH235 UCA (antibody, V domains shown, also called unmutated common ancestor of the CH235 lineage) VH: QVQLVQSGAEVKKPGASVKVSCKASGYTFTSYYMHWVRQAPGQGLEWMGIINPSGGSTSYAQKFQGRVTMTRDTSTSTVYMELSSLRSEDTAVYYCARDVGTEGSLLHFDYWGQGTLVTVSS VL: not shown | 0 | 0 | 0 | 0 | 0 | 0.24 | 0 | 0 | 0 | 0 | 0 | 0 | 0 | 0 | 0 | no binding | no binding | no binding | no binding
2 | CH555 (antibody, V domains shown, also called CH235.10) VH: QVQLVQSGATVKKPRASVTLSCRTSGYNFIDYFIHWVRRAPGQRLEVMGYIDPSRGRPDYAPNFRDRVSLYRDTSMSIVYLDLRDLTPDDTAIYYCVRSEGTEGTVLHYDHWGPGTRVTVSP VL: EIVLTQSPDTLSASPGERVTLSCRASQSVGTKVAWYRHVRGQPPRLLIYGASTRAAGIPARFSGGGSGTNFTLIINNFQSEDFAEYLCQQYKSWWTFGQGTKVDNK | 7.23 | 5.63 | 5.62 | 0 | 5.54 | 2.62 | 1.06 | 5.05 | 0 | 0 | 0.07 | 0.09 | 5.67 | 0 | 0 |  | no binding |  | 
3 | CH556 (antibody, V domains shown, also called CH235.11) VH: QVQLVQSGGTVKSPGTSVTLSCKTSGYNFIDYYIHWVRRAPGQRPELMGYIDPSHGRPDYEGKFRDRISLYRDTSTSVVYMDVRGLRLDDTALYYCVRGGGVEVSSNHYDHWGPGTMVFVSP VL: ETTLTQSPDTLSASPGERVTLSCRAAQSVGSQVAWFRHIRGQPPRLLISGASTRAAGVPARFSGSGSGTDFTLTISGMQSEDFAEYFCQQYHMWWTFGQGTRVDKN | 0.26 | 0.11 | 0.69 | 0 | 0.11 | 1.26 | 1.06 | 0.11 | 0.09 | 0.1 | 0.23 | 0 | 0.09 | 0.29 | 0.28 |  | no binding |  | 
4 | CH235.13 (antibody, V domains shown) VH: QVQLVQSGGGVKRPGSTTTISCVASGYSFNDYYIHWVRQAPGQGLEVLGFIDPSNGRTNYAGAFGDRFSMYRDKSMETLYMDLRNLRSDDTAMYYCVRNVGTAGSLLHYDHWGTGSKIIVSS VL: EIVLTQSPATLSASPGERVTLTCRASRGVRNNVAWYQHNVGQSPRLLIYDASTRAPGIPARFSGSASGTEFTLAISSIQSEDFTLYYCHQYNNWWTFGQGTRVDIN | 6.23 | 6.14 | 5.41 | 1.05 | 1.76 | 6.53 | 6.38 | 5.35 | 2.89 | 0 | 0 | 0 | 6.07 | 0 | 0 |  | no binding |  | 
